From PMC11445458
Several values for one entry are separate records, joined by “and”; a condition that tells them apart may be missing. Equal values may be shown once.

What was measured:
[1] = target: adaptor protein (gp41) of bacteriophage JBD30 (bacteriophage JBD30 (Casadabanvirus JBD30)); assay: cryo-EM structure; single-particle reconstructions (icosahedral, C5, C12, C6, C3, asymmetric, localized) of purified JBD30 virions and empty particles in phage buffer (10 mM MgSO4, 10 mM NaCl, 50 mM Tris pH 8); native assembly
[2] = target: baseplate hub protein (gp53) of bacteriophage JBD30 (bacteriophage JBD30 (Casadabanvirus JBD30)); assay: as above
[3] = target: distal tail protein (gp49) of bacteriophage JBD30 (bacteriophage JBD30 (Casadabanvirus JBD30)); assay: as above
[4] = target: major capsid protein (gp38) of bacteriophage JBD30 (bacteriophage JBD30 (Casadabanvirus JBD30)); assay: as above
[5] = target: major capsid protein (gp38) of bacteriophage JBD30 (bacteriophage JBD30 (Casadabanvirus JBD30)); assay: cryo-EM structure; single-particle reconstruction of JBD30 procapsids found in the purified phage sample (icosahedral, C5, localized C12 portal)
[6] = target: major tail protein (gp44) of bacteriophage JBD30 (bacteriophage JBD30 (Casadabanvirus JBD30)); assay: cryo-EM structure; single-particle reconstructions (icosahedral, C5, C12, C6, C3, asymmetric, localized) of purified JBD30 virions and empty particles in phage buffer (10 mM MgSO4, 10 mM NaCl, 50 mM Tris pH 8); native assembly
[7] = target: minor capsid protein (gp39) of bacteriophage JBD30 (bacteriophage JBD30 (Casadabanvirus JBD30)); assay: as above
[8] = target: portal protein (gp32) of bacteriophage JBD30 (bacteriophage JBD30 (Casadabanvirus JBD30)); assay: as above
[9] = target: portal protein (gp32) of bacteriophage JBD30 (bacteriophage JBD30 (Casadabanvirus JBD30)); assay: cryo-EM structure; single-particle reconstruction of JBD30 procapsids found in the purified phage sample (icosahedral, C5, localized C12 portal)
[10] = target: receptor binding protein (gp54) of bacteriophage JBD30 (bacteriophage JBD30 (Casadabanvirus JBD30)); assay: cryo-EM structure; single-particle reconstructions (icosahedral, C5, C12, C6, C3, asymmetric, localized) of purified JBD30 virions and empty particles in phage buffer (10 mM MgSO4, 10 mM NaCl, 50 mM Tris pH 8); native assembly
[11] = target: stopper protein (gp42) of bacteriophage JBD30 (bacteriophage JBD30 (Casadabanvirus JBD30)); assay: as above
[12] = target: tape measure protein (gp46) of bacteriophage JBD30 (bacteriophage JBD30 (Casadabanvirus JBD30)); assay: as above

Substance: adaptor protein (gp41) of bacteriophage JBD30 (natural protein)
- stoichiometry N [1]: 12

Substance: baseplate hub protein (gp53) of bacteriophage JBD30 (natural protein)
- stoichiometry N [2]: 3

Substance: distal tail protein (gp49) of bacteriophage JBD30 (natural protein)
- stoichiometry N [3]: 3

Substance: major capsid protein (gp38) of bacteriophage JBD30 (natural protein)
- stoichiometry N [4]: 5 and 6
- stoichiometry N [5]: 5 and 6

Substance: major tail protein (gp44) of bacteriophage JBD30 (natural protein)
- stoichiometry N [6]: 6

Substance: minor capsid protein (gp39) of bacteriophage JBD30 (natural protein)
- stoichiometry N [7]: 3

Substance: portal protein (gp32) of bacteriophage JBD30 (natural protein)
- stoichiometry N [8]: 12
- stoichiometry N [9]: 12

Substance: receptor binding protein (gp54) of bacteriophage JBD30 (natural protein)
- stoichiometry N [10]: 3

Substance: stopper protein (gp42) of bacteriophage JBD30 (natural protein)
- stoichiometry N [11]: 6

Substance: tape measure protein (gp46) of bacteriophage JBD30 (natural protein)
- stoichiometry N [12]: 3
